Reference: article PMC10257657, “A flavin-monooxygenase catalyzing oxepinone formation and the complete biosynthesis of vibralactone” (Nature Communications, 2023)

Substrate: CC(C)=CCc1cc(CO)ccc1O
Assay: purified protein
Format: biochemical, Boreostereum vibrans
Details: NADPH 0.1 mM, 50 mM sodium phosphate pH 7.5, 28 °C, 30 min

B1: VibO (Boreostereum vibrans) (protein)
chain: MAAVENFEGYVEPELFERPGTSLPNKLGVMPQLTWPNVLNGTNCEKPAVPNYKPPSKVDVIIIGAGPVGLTTAACLLRQGITVRILDRSPHPLPVGRADGLQPRSMEVFDLLGLGEEVYHVGIRVEHTTVYKDGKQHIFAESHQAPGNEAHYTGLHACTQTEVEHLLIRDLIRHDILVERPCTATSYTFDEEADASVTHPITVNITNEATGAEEVVTARFLVGSDGAHSMIRKSLPIEFPGVKTDLHWGIVDAVINSDFPHRWTFGTVLNSEYGGCLIIPRERNMVRLYVQLRAEPGKAFDHSKWGPEEILVILNKVFAPYTLSYAEPVDWYTILTINERVATSFTYKDRIFLAGDSCHVHSAKGAFGMNTGVMDAHNLAWKLAMLCRGIAKPSLLASYDVERRENALRAVATSARYLRFVGNCTFQAIDGSGEVDKEADELVVPPGEDKDVFYFKKFVGQVGRFLIGLDVDYAENALNKLSPAVSRARAGYRASNPRVALSRSHSGRLYHSFGHLGQFTLLVFASNMGGALNAKLHALDSYLAGPSSFYHAYGGADTFKIVVVVRATPSQADQRVKTFPFLSKAGHTVYDDQLPLSHFGGDAHALYGVSHEEGAIVVVRPDSWIGTSSTISDARSLESYFDGFLFKSTEGSY
notes: full length, N-terminal His6 tag, expressed in E. coli BL21(DE3) (pET28a(+)); domains cover residues 1-653; dimer; copurified FAD
B1 was tested, and the Km was 407 ± 83 µM and the kcat was 0.111 ± 0.010 min^–1.
